Measured values from patent US20190031759A1 (TECHNION RESEARCH AND DEVELOPMENT FOUNDATION, published 2019).

B1: F3 anti-HLA-A2/WT1Db126 TCR-like recombinant Fab antibody (Fab, V domains shown)
VH: EVQLVQSGAEVKKTGSSVKVSCKASGYTFTYRYLHWARQAPGQALEWMGWITPFNGNTNYAQKFQDRVTITRDRSMSTAYMELSSLRSEDTAMYYCASSAYDAFDIWGQGTMVTV
VL: LSSELTQDPAVSVALGQTVKITCQGDSLRIHYASWYQQKPGQAPVLVIYGKDNRPSGIPDRFSGSSSGTSASLTITGARAEDEADYYCNSRDNSGDHVLFGGGTKLTVV
notes: Soluble human Fab from a naive phage Fab library; also called F3 Fab; F3 TCRL
B2: F2 anti-HLA-A2/WT1Db126 TCR-like recombinant Fab antibody (Fab, V domains shown)
VH: QVQLVQSGGGLVKPGGSLRLSCAASGFTFSSYSMNWVRQAPGKGLEWVSSISSSSSYIYYADSVKGRFTISRDNAKNSLYLQMNSLRAEDTAVYYCARGDYYGLTFDPWGQGTLVTV
VL: LNFMLTQPHSVSESPGKTVTISCTRSSGSIASNYVQWYQQRPGSSPTTVIYEDNQRPSGVPDRFSGSIDSSSNSASLTISGLKTEDEADYYCQSYDSSNQNWVFGGGTKLTVLS
notes: Soluble human Fab from a naive phage Fab library, expressed in E. coli and purified on a TALON column; also called F2 Fab; F2 TCRL

Target: recombinant single-chain HLA-A2-WT1Db126 complex (soluble, biotinylated scMHC-peptide complex) (human, site-specific biotinylation at the BirA recognition sequence at the carboxyl-terminus)
Assay: SPR (ProteOn XPR36), soluble HLA-A2/WT1Db126 complexes on chip-immobilized Fabs coupled through an anti-human Fab

Binder	Kd
B1	30 nM
B2	400 nM
